From patent publication US20230287362A1 (REGENTS OF THE UNIVERSITY OF COLORADO A BODY CORPORATE, published 2023) come the findings set out here.

Ends that are not written are not given here.

Experiment [1] addresses T1, E. cloacae Cap2 E1 domain, residues 374-600, C548A (Enterobacter cloacae UCI 50, UniProt P0DX82 374-600).
T1 construct: also called Cap2 E1 (of Cp2 E1-CD-NTase Apo, PDB 7TSX)
Briefly: X-ray crystallography of a fusion construct, 1.77 A.

For experiment [2], the target named is T2, E. cloacae Cap2 E1 domain, residues 363-600, C548A (Enterobacter cloacae UCI 50, UniProt P0DX82 363-600).
T2 construct: also called Cap2 E1 (of Cap2 E1-CD-NTase: AMP, PDB 7TSQ)
The experiment is described as follows: X-ray crystallography of a fusion construct, 2.11 A.

For experiment [3], the target named is T3, E. cloacae Cap2 C109A/C548A (catalytically dead) (Enterobacter cloacae UCI 50, UniProt P0DX82 1-600).
T3 construct: also called C.D. Cap2; Cap2(C548A/C109A)
The experiment is described as follows: co-purified stoichiometric complex, cryo-EM.

B1: E. cloacae CD-NTase C terminus, residues 370-381 (peptide)
peptide: KPAEPQKTGRFA
modifications: also: C terminus conjugated to AMP in ATP-bound structure, unmodified in apo structure
On to B1, for which the binding result in experiment [1] and in experiment [2] was “binds” in each case.

B2: E. cloacae CD-NTase with an N-terminal His6-tag (enzyme)
chain: MELQPQFNEFLANIRPTDTQKEDWKSGARTLRERLKNFEPLKEIVVSTFLQGSIRRSTAIRPLGDKRPDVDIVVVTNLDHTRMSPTDAMDLFIPFLEKYYPGKWETQGRSFGITLSYVELDLVITAIPESGAEKSHLEQLYKSESVLTVNSLEEQTDWRLNKSWTPNTGWLSESNSAQVEDAPASEWKAHPLVLPDREKNEWGRTHPLAQIRWTAEKNRLCNGHYINLVRAVKWWRQQNSEDLPKYPKGYPLEHLIGNALDNGTTSMAQGLVQLMDTFLSRWAAIYNQKSKPWLSDHGVAEHDVMARLTAEDFCSFYEGIASAAEIARNALASEEPQESAQLWRQLFGSKFPLPGPQGGDRNGGFTTPSKPAEPQKTGRFA
modifications: C terminus conjugated to AMP in the cryo-EM structure
notes: also called His6-CD-NTase; ec cdnD02; not shown: N-terminal His6-TEV cleavage site tag of vector 2-BT
As to B2, the binding result in experiment [3] is recorded as “binds”.
